Assay results published in paper PMC6175992, “Telomeric Repeat-Binding Factor Homologs in Entamoeba histolytica: New Clues for Telomeric Research”.

B1: EhTEL (dsDNA)
DNA 1: GCTCTATTAGTATTTTAGTATTTTAGTATTTTAGTATT
DNA 2: CATCTAGAGCAATACTAAAATACTAAAATACTAAAATACTAA
B2: HsTEL (dsDNA)
DNA 1: GCTCTAGGGTTAGGGTTAGGGTTAGGGTTA
DNA 2: CATCTACCCTAACCCTAACCCTAACCCTAA

Target: T1, rEhTRF-like I (Entamoeba histolytica, UniProt C4M1I9 1-404)
T1 sequence: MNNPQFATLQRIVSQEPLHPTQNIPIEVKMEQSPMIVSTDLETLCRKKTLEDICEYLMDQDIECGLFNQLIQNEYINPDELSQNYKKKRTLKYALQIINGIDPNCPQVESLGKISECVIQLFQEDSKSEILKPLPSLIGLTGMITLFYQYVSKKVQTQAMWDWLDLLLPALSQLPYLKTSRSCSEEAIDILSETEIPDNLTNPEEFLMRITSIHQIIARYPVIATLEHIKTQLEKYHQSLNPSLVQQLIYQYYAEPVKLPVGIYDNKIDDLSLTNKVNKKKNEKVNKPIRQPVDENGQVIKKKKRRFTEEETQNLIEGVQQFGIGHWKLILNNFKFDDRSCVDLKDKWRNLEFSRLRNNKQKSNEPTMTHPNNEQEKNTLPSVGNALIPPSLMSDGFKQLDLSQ
Assay: EMSA; competed by unlabeled HsTEL and EhTEL; 12 mM HEPES pH 7.9, 60 mM KCl, 5 mM MgCl2, 1 mM EDTA, 4 mM Tris-HCl, 5 mM DTT, 10% glycerol, 4 mM spermidine, 4 mM MgCl (so in the source), 50 ng poly dI-dC, protease inhibitors; 20 min at 4 C; 106.86 uM rEhTRF-like I or 10 ug nuclear extract, 1 ng probe
Settings: protein: recombinant; tags: His tag (pCold I); label: 32P; 5' overhangs on both strands

Binder	binding result
B1	binds
B2	binds
